# Source: IntAct's records for PubMed 28054552
# B1: Hexokinase-2 (Homo sapiens), P52789 (parent)
# chain: MIASHLLAYFFTELNHDQVQKVDQYLYHMRLSDETLLEISKRFRKEMEKGLGATTHPTAAVKMLPTFVRSTPDGTEHGEFLALDLGGTNFRVLWVKVTDNGLQKVEMENQIYAIPEDIMRGSGTQLFDHIAECLANFMDKLQIKDKKLPLGFTFSFPCHQTKLDESFLVSWTKGFKSSGVEGRDVVALIRKAIQRRGDFDIDIVAVVNDTVGTMMTCGYDDHNCEIGLIVGTGSNACYMEEMRHIDMVEGDEGRMCINMEWGAFGDDGSLNDIRTEFDQEIDMGSLNPGKQLFEKMISGMYMGELVRLILVKMAKEELLFGGKLSPELLNTGRFETKDISDIEGEKDGIRKAREVLMRLGLDPTQEDCVATHRICQIVSTRSASLCAATLAAVLQRIKENKGEERLRSTIGVDGSVYKKHPHFAKRLHKTVRRLVPGCDVRFLRSEDGSGKGAAMVTAVAYRLADQHRARQKTLEHLQLSHDQLLEVKRRMKVEMERGLSKETHASAPVKMLPTYVCATPDGTEKGDFLALDLGGTNFRVLLVRVRNGKWGGVEMHNKIYAIPQEVMHGTGDELFDHIVQCIADFLEYMGMKGVSLPLGFTFSFPCQQNSLDESILLKWTKGFKASGCEGEDVVTLLKEAIHRREEFDLDVVAVVNDTVGTMMTCGFEDPHCEVGLIVGTGSNACYMEEMRNVELVEGEEGRMCVNMEWGAFGDNGCLDDFRTEFDVAVDELSLNPGKQRFEKMISGMYLGEIVRNILIDFTKRGLLFRGRISERLKTRGIFETKFLSQIESDCLALLQVRAILQHLGLESTCDDSIIVKEVCTVVARRAAQLCGAGMAAVVDRIRENRGLDALKVTVGVDGTLYKLHPHFAKVMHETVKDLAPKCDVSFLQSEDGSGKGAALITAVACRIREAGQR
# B2: Hexokinase-1 (Homo sapiens), P19367 (parent)
# chain: MIAAQLLAYYFTELKDDQVKKIDKYLYAMRLSDETLIDIMTRFRKEMKNGLSRDFNPTATVKMLPTFVRSIPDGSEKGDFIALDLGGSSFRILRVQVNHEKNQNVHMESEVYDTPENIVHGSGSQLFDHVAECLGDFMEKRKIKDKKLPVGFTFSFPCQQSKIDEAILITWTKRFKASGVEGADVVKLLNKAIKKRGDYDANIVAVVNDTVGTMMTCGYDDQHCEVGLIIGTGTNACYMEELRHIDLVEGDEGRMCINTEWGAFGDDGSLEDIRTEFDREIDRGSLNPGKQLFEKMVSGMYLGELVRLILVKMAKEGLLFEGRITPELLTRGKFNTSDVSAIEKNKEGLHNAKEILTRLGVEPSDDDCVSVQHVCTIVSFRSANLVAATLGAILNRLRDNKGTPRLRTTVGVDGSLYKTHPQYSRRFHKTLRRLVPDSDVRFLLSESGSGKGAAMVTAVAYRLAEQHRQIEETLAHFHLTKDMLLEVKKRMRAEMELGLRKQTHNNAVVKMLPSFVRRTPDGTENGDFLALDLGGTNFRVLLVKIRSGKKRTVEMHNKIYAIPIEIMQGTGEELFDHIVSCISDFLDYMGIKGPRMPLGFTFSFPCQQTSLDAGILITWTKGFKATDCVGHDVVTLLRDAIKRREEFDLDVVAVVNDTVGTMMTCAYEEPTCEVGLIVGTGSNACYMEEMKNVEMVEGDQGQMCINMEWGAFGDNGCLDDIRTHYDRLVDEYSLNAGKQRYEKMISGMYLGEIVRNILIDFTKKGFLFRGQISETLKTRGIFETKFLSQIESDRLALLQVRAILQQLGLNSTCDDSILVKTVCGVVSRRAAQLCGAGMAAVVDKIRENRGLDRLNVTVGVDGTLYKLHPHFSRIMHQTVKELSPKCNVSFLLSEDGSGKGAALITAVGVRLRTEASS
# Variants of: B1
# Conditions: with src_mouse Src
row,effect of a mutation on the interaction,Variant
1,disrupting interaction strength,Y686F

# Variants of: B2
# Conditions: with src_mouse Src
row,effect of a mutation on the interaction,Variant
1,disrupting interaction strength,Y732F
2,with no effect,Y27F
3,with no effect,Y417F
